This is an account of results in patent publication US20230242646A1 (JJP BIOLOGICS SP Z O O, published 2023).

Experiment [1] addresses T1, recombinant C-terminal polyhistidine-tagged human (extracellular) CD89 (Sino Biological) (human, UniProt P24071 22-227).
T1 construct: extracellular domain; bought protein; also called rhuCD89; soluble monomeric rhuCD89
Nature of the experiment: ELISA, coated rhuCD89. For orientation: An ELISA detects its analyte on a solid surface through an enzyme-linked reagent.

Experiment [2] addresses T2, membrane-bound full-length human CD89 on HEK293F cells (human, UniProt P24071 22-287).
T2 construct: 2 or transient transfectants; also called membrane human CD89; human FcaRI
Nature of the experiment: FACS HEK293F-huCD89.
Method: After extensive washing in PBS/BSA/NaN₃, cells were subsequently incubated with 1:200 diluted PE-conjugated goat anti-human IgG Fcy-specific antibodies (Jackson ImmunoResearch) for 30 minutes at 4° C. After extensive washing in PBS/BSA/NaN₃, cells were fixed in 2% formaldehyde in PBS/BSA/NaN₃ for 30 minutes at 4° C.

Experiment [3] addresses T1, recombinant C-terminal …. Nature of the experiment: ELISA on plate-coated rhuCD89; titrated supernatant; HRP goat anti-human IgG Fc detection, OD 450 nm [VL3].
Experiment [4] concerns the target T2, membrane-bound full-length human CD89 …. Nature of the experiment: FACS HEK293F-huCD89, purified Ab.
Method: After extensive washing in PBS/BSA/NaN₃, cells were subsequently incubated with 1:200 diluted PE-conjugated goat anti-human IgG Fcγ-specific antibodies (Jackson ImmunoResearch) for 30 minutes at 4° C. After extensive washing in PBS/BSA/NaN₃, cells were fixed in 4% formaldehyde in PBS/BSA/NaN₃ for 30 minutes at 4° C.
Experiment [5] has the same target. The experiment is described as follows: FACS HEK293F-huCD89; inhibition of serum human IgA binding.
Method: (§1) After extensive washing in PBS/BSA/NaN₃, 1:200 diluted PE-conjugated streptavidin (Jackson ImmunoResearch) was added, and incubated for 30 minutes at 4° C. After extensive washing in PBS/BSA/NaN₃, cells were fixed in 4% formaldehyde in PBS/BSA/NaN₃ for 30 minutes at 4° C.
Experiment [6] has the same target. The experiment is described as follows: FACS HEK293F-huCD89; inhibition of secretory human IgA binding.
Method: as §1
Experiment [7] deals with T1, recombinant C-terminal …. Nature of the experiment: ELISA, coated rhuCD89, purified Ab.
Method: After extensive washing with PBS/0.05% Tween 20, plates were blocked with PBS/0.05% Tween 20/1% BSA (Roche) for 1 hour at RT. […] After extensive washing in PBS/0.05% Tween 20, binding of antibodies on rhuCD89 was determined with 1:5,000 diluted horseradish peroxidase (HRP)-conjugated goat anti-human IgG Fcγ-specific antibodies (Jackson ImmunoResearch) for 1 hour at RT, followed by a ready-to-use solution of TMB substrate (Invitrogen) for colorimetric detection. After adding 1 M HCL, binding (optical density) of antibodies on rhuCD89 was measured at wavelength of 450 nm (reference wavelength of 655 nm) using a microplate reader (Synergy HTX; BioTek).
Experiment [8] has as its target T1, recombinant C-terminal …. The experiment is described as follows: BLI (Octet RED96), biotinylated Ab on streptavidin tips, rhuCD89 analyte, 1:1 model. On the technique in general: Biolayer interferometry detects binding as a change in optical thickness at a sensor tip.
Method: Equilibrium dissociation constants (KD) were determined using a 1:1 Langmuir binding model in Octet® RED96 software (ForteBio).
The target in experiment [9] is T1, recombinant C-terminal …. Nature of the experiment: ELISA on plate-coated rhuCD89; titrated supernatant; HRP goat anti-human IgG Fc detection, OD 450 nm [VL4].
Experiment [10] has as its target T2, membrane-bound full-length human CD89 …. The experiment is described as follows: FACS, antibody before non-aggregated serum IgA on HEK293F-huCD89; IgA detected.
For experiment [11] the target is unchanged. The experiment is described as follows: FACS, antibody before heat-aggregated serum IgA on HEK293F-huCD89; IgA detected. Background: In flow cytometry, cells or beads pass a laser one at a time.
The target is the same in experiment [12]. The experiment is described as follows: FACS, antibody before secretory IgA on HEK293F-huCD89; IgA detected.

In general, EC50 refers to the concentration needed to bring the measured effect to its halfway point. As usually defined, the EC50 (read off the curve) is the concentration that produces a half-maximal response. The IC50 is the concentration at which inhibition is half-maximal. Usually Kd stands for the free concentration of one partner at which half of the binding sites on the other are occupied at equilibrium, for simple one-to-one binding. Broadly, the koff is the rate constant with which the complex falls apart. The kon is the rate constant with which the complex forms.

Values joined by “and” are separate entries in the source; they are usually repeats but may differ in a detail not shown here. Equal entries are not always repeated.

B1: CD89/IgA blocking chimeric mouse/human IgG4/kappa anti-human CD89 antibody 20B4 (antibody)
heavy: not shown
light: DILMTQSPSSMSVSLGDTVSITCHASQDISRNIGWLQQKPGKSFKGLIYHGTNLEDGVPSRFSGSGSGADYSLTISSLESEDFADYYCVQYAQFPRTFGGGTKLEIKRTVAAPSVFIFPPSDEQLKSGTASVVCLLNNFYPREAKVQWKVDNALQSGNSQESVTEQDSKDSTYSLSSTLTLSKADYEKHKVYACEVTHQGLSSPVTKSFNRGEC
notes: stabilized (S239P) human IgG4; also called chimeric 20B4
As to B1, the 50% effective concentration (EC50) is 0.009 µg/mL in experiment [1] and 0.296 µg/mL in [2].

B2: humanized IgG4/kappa anti-human CD89 monoclonal antibody 10E7 version VH2VL3 (antibody)
heavy: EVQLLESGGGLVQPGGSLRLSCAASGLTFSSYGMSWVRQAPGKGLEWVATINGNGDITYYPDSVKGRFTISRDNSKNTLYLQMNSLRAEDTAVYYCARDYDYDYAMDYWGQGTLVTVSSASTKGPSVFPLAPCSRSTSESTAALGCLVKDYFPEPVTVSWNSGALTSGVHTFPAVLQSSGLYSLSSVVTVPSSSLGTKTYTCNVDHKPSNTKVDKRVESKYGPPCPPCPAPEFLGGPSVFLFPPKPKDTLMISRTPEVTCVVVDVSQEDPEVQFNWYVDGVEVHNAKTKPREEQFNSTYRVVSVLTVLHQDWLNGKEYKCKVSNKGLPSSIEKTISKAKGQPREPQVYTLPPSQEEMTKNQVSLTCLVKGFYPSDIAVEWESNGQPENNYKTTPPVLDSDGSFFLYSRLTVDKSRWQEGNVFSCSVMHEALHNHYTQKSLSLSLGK
light: DIQMTQSPSSLSASVGDRVTITCRASQDIINYLNWYQQKPGKAVKLLIYYTSRLHSGVPSRFSGSGSGTDYTLTISSLQPEDFATYYCQQGKTLPYTFGQGTKLEIKRTVAAPSVFIFPPSDEQLKSGTASVVCLLNNFYPREAKVQWKVDNALQSGNSQESVTEQDSKDSTYSLSSTLTLSKADYEKHKVYACEVTHQGLSSPVTKSFNRGEC
notes: tested as supernatant; signal peptide end derived as for m17
As to B2, the “EC50 (read off the curve)” value in experiment [3] is approximately 0.04 µg/mL.

B3: 'CDR2 deamidation-repaired' humanized IgG4/kappa anti-human CD89 monoclonal antibody 10E7 version VH3STVL3 (antibody)
heavy: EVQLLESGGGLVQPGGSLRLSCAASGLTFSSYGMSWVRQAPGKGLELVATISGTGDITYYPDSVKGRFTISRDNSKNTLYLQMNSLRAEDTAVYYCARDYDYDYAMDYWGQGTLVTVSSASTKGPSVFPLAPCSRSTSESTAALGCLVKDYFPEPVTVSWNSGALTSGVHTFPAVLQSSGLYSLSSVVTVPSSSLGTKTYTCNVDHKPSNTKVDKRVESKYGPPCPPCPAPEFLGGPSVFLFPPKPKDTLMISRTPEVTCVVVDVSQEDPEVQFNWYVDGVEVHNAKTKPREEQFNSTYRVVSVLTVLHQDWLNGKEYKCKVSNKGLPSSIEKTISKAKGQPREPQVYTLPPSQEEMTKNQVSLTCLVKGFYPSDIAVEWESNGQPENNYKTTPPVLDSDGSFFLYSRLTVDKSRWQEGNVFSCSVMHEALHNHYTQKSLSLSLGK
light: DIQMTQSPSSLSASVGDRVTITCRASQDIINYLNWYQQKPGKAVKLLIYYTSRLHSGVPSRFSGSGSGTDYTLTISSLQPEDFATYYCQQGKTLPYTFGQGTKLEIKRTVAAPSVFIFPPSDEQLKSGTASVVCLLNNFYPREAKVQWKVDNALQSGNSQESVTEQDSKDSTYSLSSTLTLSKADYEKHKVYACEVTHQGLSSPVTKSFNRGEC
notes: Biotinylated in the Octet assay; also called Humanized VH3STVL3
Take B3: the concentration giving a half-maximal response (EC50) in [4] was approximately 0.6 µg/mL. Further, the IC50 in experiment [5] is approximately 0.9 µg/mL. The molecule further came in with an IC50 in experiment [6] of approximately 0.6 µg/mL. Also, the EC50 in [7] was approximately 0.01 µg/mL. In addition, in experiment [8], the Kd worked out at 0.92 nM, the koff amounted to 0.000974 s⁻¹ and the kon came to 1.06e+06 M⁻¹ s⁻¹.

B4: humanized IgG4/kappa anti-human CD89 monoclonal antibody 10E7 version VH1VL3 (antibody)
heavy: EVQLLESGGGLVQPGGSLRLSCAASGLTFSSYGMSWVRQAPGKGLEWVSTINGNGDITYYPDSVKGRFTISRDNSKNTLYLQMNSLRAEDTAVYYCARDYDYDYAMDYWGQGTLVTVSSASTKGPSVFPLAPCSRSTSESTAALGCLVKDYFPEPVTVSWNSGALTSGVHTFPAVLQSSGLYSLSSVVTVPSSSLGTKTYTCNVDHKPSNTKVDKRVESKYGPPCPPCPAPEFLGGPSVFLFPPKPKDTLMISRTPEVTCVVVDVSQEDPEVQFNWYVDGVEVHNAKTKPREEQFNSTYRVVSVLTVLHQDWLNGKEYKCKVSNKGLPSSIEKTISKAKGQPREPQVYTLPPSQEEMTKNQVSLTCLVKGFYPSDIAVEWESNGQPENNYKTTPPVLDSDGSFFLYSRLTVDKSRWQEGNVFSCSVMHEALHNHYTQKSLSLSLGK
light: DIQMTQSPSSLSASVGDRVTITCRASQDIINYLNWYQQKPGKAVKLLIYYTSRLHSGVPSRFSGSGSGTDYTLTISSLQPEDFATYYCQQGKTLPYTFGQGTKLEIKRTVAAPSVFIFPPSDEQLKSGTASVVCLLNNFYPREAKVQWKVDNALQSGNSQESVTEQDSKDSTYSLSSTLTLSKADYEKHKVYACEVTHQGLSSPVTKSFNRGEC
notes: as for B2
Consider B4, for which the half-maximal effective concentration (EC50 (read off the curve)) in experiment [3] was approximately 0.03 µg/mL.

B5: humanized IgG4/kappa anti-human CD89 monoclonal antibody 10E7 version VH2VL4 (antibody)
heavy: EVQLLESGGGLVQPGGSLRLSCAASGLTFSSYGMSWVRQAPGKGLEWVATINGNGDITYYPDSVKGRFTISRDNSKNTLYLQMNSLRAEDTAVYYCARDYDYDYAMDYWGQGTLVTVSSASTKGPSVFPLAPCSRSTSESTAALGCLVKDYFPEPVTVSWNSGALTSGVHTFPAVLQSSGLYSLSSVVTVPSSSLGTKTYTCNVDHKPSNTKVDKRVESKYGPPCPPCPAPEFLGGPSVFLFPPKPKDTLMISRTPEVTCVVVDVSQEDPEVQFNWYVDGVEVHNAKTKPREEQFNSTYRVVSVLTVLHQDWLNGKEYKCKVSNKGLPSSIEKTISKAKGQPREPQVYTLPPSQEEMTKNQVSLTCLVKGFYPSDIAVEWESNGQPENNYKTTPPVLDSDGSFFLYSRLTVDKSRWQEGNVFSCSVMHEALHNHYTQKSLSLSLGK
light: DIQMTQSPSSLSASVGDRVTITCRASQDIINYLNWYQQKPGKTVKLLIYYTSRLHSGVPSRFSGSGSGTDYTLTISSLQPEDFATYFCQQGKTLPYTFGQGTKLEIKRTVAAPSVFIFPPSDEQLKSGTASVVCLLNNFYPREAKVQWKVDNALQSGNSQESVTEQDSKDSTYSLSSTLTLSKADYEKHKVYACEVTHQGLSSPVTKSFNRGEC
notes: as for B2
As to B5, in experiment [9], the “EC50 (read off the curve)” value was approximately 0.03 µg/mL.

B6: 'CDR2 deamidation-repaired' humanized IgG4/kappa anti-human CD89 monoclonal antibody 10E7 version VH3SQVL3 (antibody)
heavy: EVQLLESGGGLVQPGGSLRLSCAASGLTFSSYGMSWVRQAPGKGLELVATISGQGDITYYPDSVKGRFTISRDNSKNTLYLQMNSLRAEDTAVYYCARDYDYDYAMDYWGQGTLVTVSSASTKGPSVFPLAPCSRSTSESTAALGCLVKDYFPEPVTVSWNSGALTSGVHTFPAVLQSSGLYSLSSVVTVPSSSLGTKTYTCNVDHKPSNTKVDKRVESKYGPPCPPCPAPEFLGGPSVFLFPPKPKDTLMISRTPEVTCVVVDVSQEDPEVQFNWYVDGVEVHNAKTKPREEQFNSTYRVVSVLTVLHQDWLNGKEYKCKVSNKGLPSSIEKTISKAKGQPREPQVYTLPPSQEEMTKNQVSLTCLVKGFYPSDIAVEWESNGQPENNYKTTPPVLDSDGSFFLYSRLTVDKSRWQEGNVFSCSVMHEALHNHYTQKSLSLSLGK
light: DIQMTQSPSSLSASVGDRVTITCRASQDIINYLNWYQQKPGKAVKLLIYYTSRLHSGVPSRFSGSGSGTDYTLTISSLQPEDFATYYCQQGKTLPYTFGQGTKLEIKRTVAAPSVFIFPPSDEQLKSGTASVVCLLNNFYPREAKVQWKVDNALQSGNSQESVTEQDSKDSTYSLSSTLTLSKADYEKHKVYACEVTHQGLSSPVTKSFNRGEC
notes: Biotinylated in the Octet assay; also called Humanized VH3SQVL3
B6: in [4], the EC50 was approximately 0.6 µg/mL. In [5], this molecule registered an IC50 of approximately 0.9 µg/mL. Further, the IC50 in experiment [6] is approximately 0.6 µg/mL. For the same molecule, the concentration giving a half-maximal response (EC50) in experiment [7] was approximately 0.01 µg/mL. Also, in experiment [8], the Kd is 0.82 nM, the off-rate constant (koff) stood at 0.000941 s⁻¹ and the on-rate (kon) was 1.15e+06 M⁻¹ s⁻¹.

B7: humanized IgG4/kappa anti-human CD89 monoclonal antibody 10E7 version VH1VL4 (antibody)
heavy: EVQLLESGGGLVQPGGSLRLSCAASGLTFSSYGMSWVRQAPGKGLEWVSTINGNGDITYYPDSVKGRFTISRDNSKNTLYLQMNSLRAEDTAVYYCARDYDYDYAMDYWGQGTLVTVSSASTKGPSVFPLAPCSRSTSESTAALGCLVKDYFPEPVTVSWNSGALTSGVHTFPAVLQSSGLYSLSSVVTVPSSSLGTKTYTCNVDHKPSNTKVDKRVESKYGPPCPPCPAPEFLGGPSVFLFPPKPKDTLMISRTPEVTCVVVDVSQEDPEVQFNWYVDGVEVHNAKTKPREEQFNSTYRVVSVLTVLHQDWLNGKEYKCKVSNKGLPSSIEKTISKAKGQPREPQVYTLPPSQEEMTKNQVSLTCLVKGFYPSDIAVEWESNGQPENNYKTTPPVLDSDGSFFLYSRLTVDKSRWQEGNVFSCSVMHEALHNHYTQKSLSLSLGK
light: DIQMTQSPSSLSASVGDRVTITCRASQDIINYLNWYQQKPGKTVKLLIYYTSRLHSGVPSRFSGSGSGTDYTLTISSLQPEDFATYFCQQGKTLPYTFGQGTKLEIKRTVAAPSVFIFPPSDEQLKSGTASVVCLLNNFYPREAKVQWKVDNALQSGNSQESVTEQDSKDSTYSLSSTLTLSKADYEKHKVYACEVTHQGLSSPVTKSFNRGEC
notes: as for B2
Take B7: the “EC50 (read off the curve)” value in [9] was approximately 0.03 µg/mL.

B8: CD89/IgA blocking chimeric mouse/human IgG4/kappa anti-human CD89 antibody 10E7 (antibody)
heavy: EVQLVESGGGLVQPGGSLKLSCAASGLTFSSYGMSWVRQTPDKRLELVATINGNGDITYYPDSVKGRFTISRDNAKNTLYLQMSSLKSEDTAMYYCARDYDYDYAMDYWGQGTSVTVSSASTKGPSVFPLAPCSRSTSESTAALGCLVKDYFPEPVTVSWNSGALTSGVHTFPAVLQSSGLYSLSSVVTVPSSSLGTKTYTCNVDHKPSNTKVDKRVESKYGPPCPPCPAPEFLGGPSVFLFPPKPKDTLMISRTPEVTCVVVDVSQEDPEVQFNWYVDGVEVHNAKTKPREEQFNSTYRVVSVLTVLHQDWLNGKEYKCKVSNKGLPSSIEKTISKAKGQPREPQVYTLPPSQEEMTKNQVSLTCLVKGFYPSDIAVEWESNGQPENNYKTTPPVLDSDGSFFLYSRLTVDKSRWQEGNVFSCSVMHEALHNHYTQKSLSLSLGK
light: DIQMTQSTSSLSASLGDSVTISCRASQDIINYLNWYQQKPDGTVKLLIYYTSRLHSGVPSRFSGSGSGTEYSLTVSNLEKEDIATYFCQQGKTLPYTFGGGTKLEIKRTVAAPSVFIFPPSDEQLKSGTASVVCLLNNFYPREAKVQWKVDNALQSGNSQESVTEQDSKDSTYSLSSTLTLSKADYEKHKVYACEVTHQGLSSPVTKSFNRGEC
notes: stabilized (S239P) human IgG4; biotinylated in the Octet assay; also called chimeric 10E7; chimer IgG4/k 10E7
In the case of B8, the concentration for a half-maximal effect (EC50) in experiment [4] is approximately 1.3 µg/mL; in experiment [1], 0.016 µg/mL and ~0.02 µg/mL; in [7] it was approximately 0.01 µg/mL; in experiment [2], 1.25 µg/mL and ~1 µg/mL. Also, the IC50 in experiment [5] is approximately 1.6 µg/mL; in experiment [6], approximately 1 µg/mL. Besides, the equilibrium dissociation constant (Kd) in [8] is 1.28 nM. In addition, the koff in experiment [8] was found to be 0.00106 s⁻¹. In [8], the on-rate (kon) was 832000 M⁻¹ s⁻¹.

B9: CD89/IgA blocking chimeric mouse/human IgG4/kappa anti-human CD89 antibody 30C7 (antibody)
heavy: not shown
light: DIVMSQSPSSLAVSAGEKVTMSCKSSQSLLNSRTRKNYLAWYQQKPGQSPKLLIYWASTRESGVPDRFTGSGSGTDFTLTISSVQAEDLAVYYCKQSYNLMYTFGGGTKLEIKRTVAAPSVFIFPPSDEQLKSGTASVVCLLNNFYPREAKVQWKVDNALQSGNSQESVTEQDSKDSTYSLSSTLTLSKADYEKHKVYACEVTHQGLSSPVTKSFNRGEC
notes: stabilized (S239P) human IgG4; also called chimeric 30C7
Take B9: the “IC50 (read off the curve)” value in experiment [10] was approximately 0.9 µg/mL; in [11], approximately 0.8 µg/mL; in experiment [12], approximately 1 µg/mL.

B10: CD89/IgA blocking chimeric mouse/human IgG4/kappa anti-human CD89 antibody 16D6 (antibody)
heavy: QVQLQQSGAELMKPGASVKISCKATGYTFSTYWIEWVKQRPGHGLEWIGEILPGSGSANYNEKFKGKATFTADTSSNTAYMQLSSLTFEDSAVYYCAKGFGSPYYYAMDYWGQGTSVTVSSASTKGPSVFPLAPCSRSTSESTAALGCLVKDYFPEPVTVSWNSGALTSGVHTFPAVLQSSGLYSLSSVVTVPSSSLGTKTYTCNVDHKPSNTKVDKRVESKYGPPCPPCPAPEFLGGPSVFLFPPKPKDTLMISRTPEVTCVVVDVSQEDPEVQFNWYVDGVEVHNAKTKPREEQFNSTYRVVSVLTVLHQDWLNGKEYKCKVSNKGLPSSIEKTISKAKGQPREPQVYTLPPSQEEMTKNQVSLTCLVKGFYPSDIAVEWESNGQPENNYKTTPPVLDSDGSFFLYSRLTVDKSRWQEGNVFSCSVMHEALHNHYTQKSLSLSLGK
light: EIVLTQSPALMAASPGEKVTITCSVSSSISSSNLHWYQQKSETSPKPWIYGTSKLASGVPVRFSGSGSGTSYSLTISNMEAEDAATYYCQQWSSFPLTFGGGTKLEIKRTVAAPSVFIFPPSDEQLKSGTASVVCLLNNFYPREAKVQWKVDNALQSGNSQESVTEQDSKDSTYSLSSTLTLSKADYEKHKVYACEVTHQGLSSPVTKSFNRGEC
notes: stabilized (S239P) human IgG4; also called chimeric 16D6
In the case of B10, the concentration giving a half-maximal response (EC50) in experiment [1] stood at 0.108 µg/mL; in [2] it was 1.79 µg/mL.

B11: CD89/IgA blocking chimeric mouse/human IgG4/kappa anti-human CD89 antibody 8F3 (antibody)
heavy: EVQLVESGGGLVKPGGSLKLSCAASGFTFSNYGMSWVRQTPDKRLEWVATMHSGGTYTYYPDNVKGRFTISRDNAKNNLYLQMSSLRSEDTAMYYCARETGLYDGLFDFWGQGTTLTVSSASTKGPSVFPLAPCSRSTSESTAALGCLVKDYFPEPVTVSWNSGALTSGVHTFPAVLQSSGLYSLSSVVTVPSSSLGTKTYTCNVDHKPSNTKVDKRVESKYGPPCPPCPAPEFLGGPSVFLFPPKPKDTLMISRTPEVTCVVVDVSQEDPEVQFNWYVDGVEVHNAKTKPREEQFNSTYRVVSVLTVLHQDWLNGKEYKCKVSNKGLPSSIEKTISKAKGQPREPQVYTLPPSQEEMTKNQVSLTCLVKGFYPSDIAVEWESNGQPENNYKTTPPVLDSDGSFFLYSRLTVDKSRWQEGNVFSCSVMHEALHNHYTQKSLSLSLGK
light: DVQITQSPSYLAASPGETITINCRASKTISKYLAWYQEKPGKTNMLLIYSGSTLQSGVPSRFSGSGSGTDFTLTISSLEPEDLAMYYCQQHDEYPWTFGGGTKLEIKRTVAAPSVFIFPPSDEQLKSGTASVVCLLNNFYPREAKVQWKVDNALQSGNSQESVTEQDSKDSTYSLSSTLTLSKADYEKHKVYACEVTHQGLSSPVTKSFNRGEC
notes: stabilized (S239P) human IgG4; also called chimeric 8F3
With B11, the “IC50 (read off the curve)” value in experiment [10], in [11] and in [12] was approximately 1 µg/mL throughout. The results for the EC50 in [1] and in experiment [2] were 0.031 µg/mL and 1.32 µg/mL, respectively.
